“Also recorded” adds a separate entry of the source.
How the values were obtained:
[1] = test system: CMML patients; assay: GFM clinical trial cohort of CMML patients treated with Decitabine; type: in vivo, human; settings: DAC 20 mg/m2/day x 5 days
Method: In order to independently validate the predictive accuracy of the SVM classifier, a second cohort of patients on which to test its performance was identified. Twenty-eight additional diagnostic CMML specimens from patients enrolled in a clinical trial from the Groupe Francophone des Myelodysplasies (GFM), all of whom had been treated with the same DAC regimen of 20 mg/m^2/day×5 days were collected and subjected to ERRBS (Table 2, Table 3). Specimens in this cohort consisted of sorted monocytes from peripheral blood (PB) and the cohort included 12 responder and 16 non-responder patients. The SVM classifier was applied blindly to these samples, without any prior knowledge of the therapeutic response labels for the cohort. Due to the stochastic nature of ERRBS, the CpG coverage is never identical across all samples, thereby leading to missing values for some regions of interest. In effect, only 6 out of the 21 features were present in all 28 GFM cohort samples. Therefore, an SVM classifier was built on these six shared features by training it on the 39 samples of the FISM cohort and then applying the trained classifier on the GFM cohort. As shown in FIG. 8D and FIG. 11B, despite this limitation the 6-feature classifier was still capable of correctly predicting response for 20/28 patients in the GFM cohort (accuracy=71%). […]

[2] = test system: CMML patients; assay: FISM clinical trial cohort of CMML patients treated with Decitabine; type: in vivo, human; settings: DAC 20 mg/m2/day x 5 days
Method: To determine whether particular genetic or epigenetic abnormalities are associated with DMTi sensitivity or resistance in this disease a cohort of primary CMML cases was studied. Bone marrow mononuclear cells (BM MNC) were collected at the time of diagnosis from 40 patients with de novo CMML. All patients included in this study were enrolled in a clinical trial of the Fondazione Italiana per le Sindromi Mielodisplastiche (FISM) and treated with DAC single agent as front-line therapy (20 mg/m^2/day×5 days) and response was evaluated after 6 cycles of treatment. Responsive patients (n=20) were defined as those who achieved either complete remission (CR), marrow complete remission (mCR), partial remission (PR) or hematological improvement (HI), as defined by the 2006 International Working Group (IWG) response criteria in myelodysplasia (see, e.g., Cheson, B. D., Blood. 2006; 108(2):419-425). Patients with either stable or progressive disease (SD and PD, respectively) were considered as having primary resistance to DAC (n=20). […] Using MiSeq to sequence DNA isolated from the diagnostic BM MNC targeted re-sequencing of a panel of genes mutated at frequencies greater than 5% in CMML was performed: SRSF2, TET2, ASXL1, NRAS, DNMT3A, RUNX1, U2AF1, TP53, JAK2, KIT, KRAS, SF3B1, EZH2, IDH1, and IDH2. […]

[3] = test system: primary CMML cells (BM MNC); assay: Viability of primary CMML BM MNC in liquid culture; type: cell-based, human; settings: chemokine 50 ng/mL plus 10 nM DAC, 72 h
Method: (§1) CD34+ cells were treated with one dose of CXCL4, CXCL7, or both (50 ng/mL each) or vehicle (PBS/0.1% BSA) and daily doses of 10 nM DAC for 3 days. After 3 days of in vitro treatment with DAC, the cells were plated in methylcellulose and incubated for 12-15 days before colonies were counted. Data represent mean+standard deviation (SD). […] Shown in the three panels are the results of three independent experiments. […] CMML MNC were treated in vitro for 72 h with 10 nM DAC alone or in the presence of 50 ng/mL of CXCL4, CXCL7, or both. Data represent mean+standard deviation (SD).
Finally, the ability of CXCL4 and CXCL7 to induce resistance in primary CMML cells was tested. BM MNC from diagnostic specimens collected from 3 patients known to be sensitive to DAC were placed in liquid culture and treated for 72 h with 10 nM DAC in the presence or absence of 50 ng/mL of CXCL4, CXCL7 or a combination of both. Viability was assessed after 72 hours.
(§2) Cell culture and colony forming assays: CD34+ cells were isolated from cryopreserved BM MNC from femoral head specimens using the Miltenyi Biotec CD34 microbead isolation kit (San Diego, CA) per the manufacturer's instructions. […] Live cell number and viability were determined by trypan blue exclusion. […] Colonies were counted after 12 to 15 days.

[4] = test system: bone marrow cells; settings: in vitro; cited from earlier work
[5] = test system: primary human CD34+ cells; assay: Colony forming assay in methylcellulose; type: cell-based; settings: chemokine 50 ng/mL (each) plus 10 nM DAC for 3 days
Method: as §1
Cell culture and colony forming assays: CD34+ cells were isolated from cryopreserved BM MNC from femoral head specimens using the Miltenyi Biotec CD34 microbead isolation kit (San Diego, CA) per the manufacturer's instructions. For CMML cells, the cryopreserved BM MNC were rapidly thawed at 37° C. and treated with DNAse to prevent cell clumping. Cells were plated in pre-stimulation media (IMDM with 20% BIT (Stem Cell Technologies, Vancouver, BC, Canada), IL-6 (20 ng/mL), SCF (100 ng/ml), TPO (100 ng/mL), FLT3L (10 ng/mL); Peprotech, Rocky Hill, N.J.) and recovered overnight. […] Live cell number and viability were determined by trypan blue exclusion. […] Colonies were counted after 12 to 15 days.

[6] = test system: primary human CD34+ cells; assay: CD34+ cell liquid culture, live cell number and viability by trypan blue exclusion; type: cell-based; settings: 10 nM DAC daily for 3 days, with or without CXCL4/CXCL7 50 ng/mL each
Method: CD34+ cells were treated with one dose of CXCL4, CXCL7, or both (50 ng/mL each) or vehicle (PBS/0.1% BSA) and daily doses of 10 nM DAC for 3 days. After 3 days, live cell number (A) and viability (B) were assessed by trypan blue exclusion, and apoptosis (C) was analyzed by Annexin V and propodium iodide staining. The results shown are from one representative experiment out of two independent experiments.
Therefore, it was hypothesized that overabundance of CXCL4 and CXCL7 in the bone marrow microenvironment may act to overcome the effects of DAC. To test this, primary human CD34+ cells were cultured for 3 days in vitro with CXCL4 (50 ng/mL), CXCL7 (50 ng/mL) or a combination of both chemokines in either the presence or absence of low-dose DAC (10 nM) and then plated them in methylcellulose to test their clonogenic potential.
as §2, with “instructions. For CMML cells, the cryopreserved BM MNC were rapidly thawed at 37° C. and treated with DNAse to prevent cell clumping.” for “instructions.”

Molecule	Median Survival ([1]; non-responders (n=16)) [months]	Median Survival ([1]; responders (n=12)) [months]	Median Survival ([2]; non-responders (n=20)) [months]	Median Survival ([2]; responders (n=20)) [months]	effect of chemokine on the DAC-induced decrease in viability of primary CMML cells [3]	chemosensitivity of bone marrow cells to 5-fluorouracil [4]	effect of chemokine on DAC-induced inhibition of colony formation [5]	cell proliferation (live cell number) [6]
Nc1ncn([C@H]2C[C@H](O)[C@@H](CO)O2)c(=O)n1 [DAC, Decitabine]	14.5	39	13.5	26.5				
CXCL4: chemokine CXCL4 (also known as PF4), Peprotech, used at 50 ng/mL (protein, UniProt P02776 32-101, looked up) Platelet factor 4: EAEEDGDLQCLCVKTTSQVRPRHITSLEVIKAGPHCPTAQLIATLKNGRKICLDLQAPLYKKIIKKLLES					abrogated the effect of DAC; also recorded: this effect was lost	can reduce the chemosensitivity of bone marrow cells to 5-fluorouracil	did not have a significant impact on DAC-induced colony inhibition	did not affect cell proliferation
CXCL7: chemokine CXCL7 (also known as PPBP), Peprotech, used at 50 ng/mL (protein, UniProt P02775 59-128, looked up, Neutrophil-activating peptide 2, chemokine CXCL7 (also known as PPBP), Peprotech, used at 50 ng/mL) Neutrophil-activating peptide …: AELRCMCIKTTSGIHPKNIQSLEVIGKGTHCNQVEVIATLKDGRKICLDPDAPRIKKIVQKKLAGDESAD					abrogated the effect of DAC; also recorded: this effect was lost	can reduce the chemosensitivity of bone marrow cells to 5-fluorouracil	did not have a significant impact on DAC-induced colony inhibition	did not affect cell proliferation

Source: US11793825B2, “Biomarkers for predicting responsiveness to decitabine therapy” (The Regents of the University of Michigan, priority 2014, dated 2023)
